Key:
[1] = Rhodamine lipase assay with crude plant leaf extracts; assay type: biochemical; conditions: 0.025 ml droplets (crude leaf extract or 20 U porcine lipase); 30 C overnight
From the text: For transient expression assays of bovine PGE, the plant transformation and expression vectors constructed in Example 12 were moved into A. tumefaciens strain GV2260 by either electroporation or bacterial conjugation as described (Kapila et al., 1997). GV2260 carrying pIPG745 or pIPG746 was used for transient expression in tobacco, pepper, tomato, citrus, geranium, and rice plants as described (Kapila et al. 1997; Duan et al., 1999; Wroblewski et al. 2005). Cultures of Agrobacterium harboring the constructs of interest were grown in minimal medium in the presence of acetosyringone to induce the Agrobacterium vir genes. The optical density of the cultures was maintained at 0.008 for pepper and tomato and at 0.25 for citrus, geranium and rice. Strain GV2260 was flooded into healthy, young, fully expanded leaves of vigorous plants into the apoplastic space through open stomata by injection using a tuberculin syringe without a needle, flooding entire leaves. […]
Two lipase/esterase activity assays were used. […] Lower intensity fluorescence was also observed from the empty vector controls. In order to quantify the difference, 0.2 ml of the rhodamine olive oil suspension was mixed with 0.1 ml of plant extract and allowed to incubate at 30 C for 24 hrs. Fluorescence was measured using a Tecan Spectraluor Plus spectrofluorimeter (excitation=360 nm; emission=535 nm).

[2] = Phenol red lipase/esterase assay with crude plant leaf extracts; assay type: biochemical
From the text: In this Figure, the first tube on the left (labeled “Buffer”) contains phenol red buffer and Tween 20 (the dark red color appears dark in this black and white figure); the second tube to the right (“SL”) has 4 Units of Sigma porcine pancreatic lipase added (the bright yellow color appears light); the third tube to the right (labeled “731”) has a twenty microliter droplet of a crude tomato plant leaf extract from leaves inoculated 4 days earlier with GV2260 carrying “empty” (ie., no lipase gene) expression vector pIPG731 (the dark red color appears dark), and the fourth tube to the right (“768 WI”) has a twenty microliter droplet of crude tomato plant leaf extract from leaves inoculated four days earlier with GV2260 carrying cloned bovine pregastric esterase expressed in pIPG768 (the bright yellow color appears light). Tomato leaf tissue particles may be seen floating in the third and fourth tubes to the right. […] The photo was taken 16 hrs. after start of the assay.
For transient expression assays of bovine PGE, the plant transformation and expression vectors constructed in Example 12 were moved into A. tumefaciens strain GV2260 by either electroporation or bacterial conjugation as described (Kapila et al., 1997). GV2260 carrying pIPG745 or pIPG746 was used for transient expression in tobacco, pepper, tomato, citrus, geranium, and rice plants as described (Kapila et al. 1997; Duan et al., 1999; Wroblewski et al. 2005). Cultures of Agrobacterium harboring the constructs of interest were grown in minimal medium in the presence of acetosyringone to induce the Agrobacterium vir genes. The optical density of the cultures was maintained at 0.008 for pepper and tomato and at 0.25 for citrus, geranium and rice. Strain GV2260 was flooded into healthy, young, fully expanded leaves of vigorous plants into the apoplastic space through open stomata by injection using a tuberculin syringe without a needle, flooding entire leaves. After 3-4 days, two grams of leaf tissue (fresh weight), was ground in liquid nitrogen to a fine powder, and 0.5 ml of ice cold phosphate buffered saline (PBS; 137 mM NaCl, 2.7 mM KCl, 10 mM potassium phosphate, pH 7.4) was added and mixed thoroughly at 4 C. The mixture was mixed on an orbital shaker at 4 C for 30 minutes, and plant debris was pelleted at 10,000×g for 15 minutes and discarded. The supernatants from these crude plant leaf extracts were directly used in lipase/esterase assays.
The second activity assay was a phenol red lipase/esterase assay using tributyrin, olive oil or Tween 20 as substrates as described by Singh et al. (2006), except that liquid medium, rather than solidified agar medium, was used. Twenty microliter droplets of crude plant leaf extracts and the positive control were placed in the tributyrin/phenol red medium containing tributyrin, olive oil or Tween 20 and incubated at 30 C overnight. […] Transient expression of bovine PGE was confirmed in tobacco, pepper, tomato, citrus, geranium, and rice plants.
For transient expression assays, the plant transformation and expression vectors constructed in Example 15 were moved into A. tumefaciens strain GV2260 by electroporation. GV2260 carrying pIPG823 was used for transient expression in tobacco and geranium plants exactly as described in Example 20. The supernatants from crude plant leaf extracts were directly used in phenol red lipase/esterase assays using tributyrin and olive oil as substrates exactly as described in Example 20.

B1: porcine lipase: Commercial porcine pancreatic lipase, positive control of the lipase/esterase assays (protein, UniProt P00591 1-450, looked up)
Pancreatic triacylglycerol …: SEVCFPRLGCFSDDAPWAGIVQRPLKILPWSPKDVDTRFLLYTNQNQNNYQELVADPSTITNSNFRMDRKTRFIIHGFIDKGEEDWLSNICKNLFKVESVNCICVDWKGGSRTGYTQASQNIRIVGAEVAYFVEVLKSSLGYSPSNVHVIGHSLGSHAAGEAGRRTNGTIERITGLDPAEPCFQGTPELVRLDPSDAKFVDVIHTDAAPIIPNLGFGMSQTVGHLDFFPNGGKQMPGCQKNILSQIVDIDGIWEGTRDFVACNHLRSYKYYADSILNPDGFAGFPCDSYNVFTANKCFPCPSEGCPQMGHYADRFPGKTNGVSQVFYLNTGDASNFARWRYKVSVTLSGKKVTGHILVSLFGNEGNSRQYEIYKGTLQPDNTHSDEFDSDVEVGDLQKVKFIWYNNNVINPTLPRVGASKITVERNDGKVYDFCSQETVREEVLLTLNPC
Fluorescence on rhodamine olive oil agar plates [1]: Bright fluorescent spots | Phenol red indicator tube color (FIG. 2) ([2]; Tween 20 substrate, 16 hrs after start, tomato leaf extract or 4 Units lipase): bright yellow | Phenol red indicator color change ([2]; substrates tributyrin and olive oil, extracts of tobacco and geranium leaves, nematode esterase construct): color change from red to bright yellow | Phenol red indicator color change ([2]; substrates tributyrin, olive oil or Tween 20, twenty microliter droplets, 30 C overnight, bovine PGE constructs): color change from red to bright yellow | Substrates utilized in phenol red lipase/esterase assay ([2]; transiently plant-expressed enzyme or positive control): utilized all three substrates: tributyrin, olive oil and Tween 20

From patent US20080235824A1, “Use of Esterase Genes as Selectable Markers for Transforming Plant Cells” (priority 2006, published 2008)
